Test results reported in the supplement of paper PMC10126150.
± gives the standard deviation of the averaged measurements.

Tested on: ATP
Test: switch fluorescence ratio, 500 uM ATP over buffer (Cy3 cluster intensity, sum of 5 cycles each) (fold (ratio)); higher = stronger signal-on switching upon ATP binding; sequences stand for … in TCGTCGGCAGCGTCAGATGTGTATAAGAGACAGTTTTTTTTTTTTTTTTTTTTTTTTT…TC
Details: aptamer strand: ATP DNA aptamer (quencher-CACCTGGGGGAGTATTGCGGAGGAAGG + anchor), 100 nM annealed; ATP concentration: 500 uM
How it was run: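 Cy3-labelled switching-strand clusters on a modified Illumina MiSeq flow-cell were annealed to 100 nM quencher-labelled ATP aptamer, imaged in selection buffer, then imaged after 15 min with 500 uM ATP at 22 °C. Five buffer/ATP cycles ran, with NaOH stripping and re-annealing between them. The fluorescence ratio is summed target-cycle over summed buffer-cycle Cy3 intensity per cluster, averaged per switch-domain sequence. Clusters outside 100-1000 RFU were excluded.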
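Further: ATP exposure 15 min at 22 °C before imaging.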

Sequence	switch fluorescence ratio
ATGGAAGTGC	0.9827 ± 0.0068
ATGGAAGTGG	0.9908 ± 0.007
ATGGAATGCG	1.028 ± 0.0089
ATGGACACGC	1.03 ± 0.042
ATGGACTATG	1.02 ± 0.043
ATGGAGAAAG	1.02 ± 0.059
ATGGAGGCG	1.03 ± 0.013
ATGGAGGGTA	0.99 ± 0.016
ATGGAGTGTG	0.989 ± 0.02
ATGGAGTTG	0.994 ± 0.024
ATGGATACGG	1.02 ± 0.011
ATGGATAGCG	0.968 ± 0.074
ATGGATCTCA	1 ± 0.0063
ATGGATGACA	0.951 ± 0.052
ATGGATTCTG	1.07 ± 0.091
ATGGATTTGT	1.01 ± 0.021
ATGGCAACCG	1.02 ± 0.012
ATGGCAAGGT	1.02 ± 0.065
ATGGCAGACT	1.02 ± 0.052
ATGGCAGCTG	0.9949 ± 0.0095
ATGGCCGGGT	1.01 ± 0.013
ATGGCCGGTT	1.04 ± 0.013
ATGGCGACGA	1.027 ± 0.0095
ATGGCGAGGG	0.989 ± 0.017
ATGGCGATCA	0.999 ± 0.0078

Sequence	switch fluorescence ratio
ATGGCTTGGT	0.99 ± 0.025
ATGGGAAGGC	0.983 ± 0.026
ATGGGACAGT	0.988 ± 0.05
ATGGGACGGC	0.998 ± 0.032
ATGGGAGGGC	0.9698 ± 0.0059
ATGGGAGGTG	1.01 ± 0.039
ATGGGATGCG	0.981 ± 0.016
ATGGGCAGCT	1.02 ± 0.011
ATGGGCCGGG	0.9955 ± 0.0074
ATGGGCTAGA	0.9731 ± 0.0052
ATGGGCTGGG	0.997 ± 0.035
ATGGGCTTAC	1.2301 ± 0.00072
ATGGGGAATA	1.03 ± 0.0059
ATGGGGCATA	1.01 ± 0.045
ATGGGGGAA	0.997 ± 0.042
ATGGGGGCAC	0.971 ± 0.032
ATGGGGGGCA	0.971 ± 0.025
ATGGGGGGT	0.992 ± 0.028
ATGGGGGGTT	1.01 ± 0.043
ATGGGGGTAG	1.01 ± 0.048
ATGGGGTGGC	0.9977 ± 0.0017
ATGGGGTGGG	0.985 ± 0.026
ATGGGGTGTG	1 ± 0.018
ATGGGTACGG	1.02 ± 0.029
ATGGGTGAGT	1.002 ± 0.0086

Sequence	switch fluorescence ratio
ATGGGTGCCT	1.03 ± 0.023
ATGGGTGTGC	1 ± 0.034
ATGGGTTAGC	0.998 ± 0.011
ATGGGTTCAG	0.969 ± 0.0045
ATGGGTTTAG	0.994 ± 0.016
ATGGTAAGT	0.9815 ± 0.0057
ATGGTAGTAA	1.01 ± 0.024
ATGGTAGTGG	0.995 ± 0.026
ATGGTATATT	1 ± 0.033
ATGGTCAGGT	1.01 ± 0.019
ATGGTCGGGA	0.986 ± 0.026
ATGGTCGTCG	0.9939 ± 0.0035
ATGGTCGTCT	0.971 ± 0.027
ATGGTCTGCC	0.974 ± 0.02
ATGGTCTGCG	1 ± 0.018
ATGGTGAAGG	1.01 ± 0.066
ATGGTGGTGG	1.011 ± 0.0062
ATGGTGTAGG	1.01 ± 0.012
ATGGTGTATC	0.981 ± 0.026
ATGGTTAAAT	0.976 ± 0.033
ATGGTTACGG	1 ± 0.035
ATGGTTGTCA	1.03 ± 0.015
ATGGTTTATA	0.977 ± 0.045
ATGGTTTGTA	0.9744 ± 0.0088
ATGTAAACGC	1.03 ± 0.038

Sequence	switch fluorescence ratio
ATGTAACCGT	1.01 ± 0.012
ATGTAATAGC	0.989 ± 0.022
ATGTAATAGG	0.995 ± 0.046
ATGTAATGAT	1.02 ± 0.018
ATGTACGAGA	1.06 ± 0.019
ATGTACGTAG	1.03 ± 0.025
ATGTACGTTT	0.9983 ± 0.0007
ATGTAGGGAG	0.998 ± 0.017
ATGTAGGGG	1 ± 0.022
ATGTAGTACG	1 ± 0.02
ATGTAGTGCG	0.99 ± 0.021
ATGTAGTTGG	1 ± 0.016
ATGTAGTTGT	0.979 ± 0.041
ATGTATCACT	0.984 ± 0.015
ATGTATCATG	1 ± 0.033
ATGTATCGGC	1.01 ± 0.06
ATGTATCGGG	0.975 ± 0.036
ATGTATTAAG	0.98 ± 0.015
ATGTATTCAG	0.96694 ± 0.00025
ATGTATTCTT	0.987 ± 0.052
ATGTCAGGGA	0.994 ± 0.019
ATGTCCTATG	1.003 ± 0.0066
ATGTCGACTA	1.02 ± 0.021
ATGTCGTGTC	1 ± 0.013
ATGTCTGGGA	1 ± 0.037

Sequence	switch fluorescence ratio
ATGTCTGTAA	1 ± 0.013
ATGTGAAAGA	0.982 ± 0.011
ATGTGAGAGG	0.991 ± 0.022
ATGTGAGTTA	0.951 ± 0.039
ATGTGATATG	0.994 ± 0.042
ATGTGATGCT	1.012 ± 0.0044
ATGTGCAATA	1.94 ± 0.082
ATGTGCGATT	1 ± 0.037
ATGTGCGGGC	1.025 ± 0.0063
ATGTGCTCTA	0.9692 ± 0.0047
ATGTGCTCTC	0.9817 ± 0.0082
ATGTGCTGCC	0.983 ± 0.019
ATGTGCTGTT	0.99802 ± 8.7e-05
ATGTGGAAGT	0.97 ± 0.043
ATGTGGACCT	1.26 ± 0.065
ATGTGGATTC	1.02 ± 0.036
ATGTGGATTT	0.988 ± 0.023
ATGTGGCTCT	0.9984 ± 0.0069
ATGTGGGGGT	0.994 ± 0.029
ATGTGGTAAT	0.984 ± 0.024
ATGTGGTACT	0.979 ± 0.027
ATGTGGTCAT	1.008 ± 0.0065
ATGTGGTTAC	1.01 ± 0.048
ATGTGTACCC	1.04 ± 0.016
ATGTGTTACG	1.05 ± 0.012

Sequence	switch fluorescence ratio
ATGTGTTCGG	0.98 ± 0.0064
ATGTGTTGTG	0.98 ± 0.021
ATGTGTTTGC	0.99 ± 0.053
ATGTTAAGAG	0.9766 ± 0.0089
ATGTTAAGTC	0.97 ± 0.049
ATGTTAGGGG	0.981 ± 0.041
ATGTTAGGGT	0.988 ± 0.033
ATGTTAGTCG	1.01 ± 0.014
ATGTTATACT	1.02 ± 0.028
ATGTTATAGT	0.98 ± 0.04
ATGTTCGGCG	1.01 ± 0.036
ATGTTCGTAG	0.989 ± 0.015
ATGTTTATCG	0.97 ± 0.016
ATGTTTATTT	0.998 ± 0.041
ATGTTTCAGT	0.9982 ± 0.0021
ATGTTTCGGT	0.9918 ± 0.0073
ATGTTTTCTG	0.968 ± 0.04
ATGTTTTGAG	0.983 ± 0.043
ATGTTTTGTA	1 ± 0.0053
ATGTTTTTTC	0.977 ± 0.037
ATTAAAACTT	1.05 ± 0.026
ATTAAAAGGT	1 ± 0.026
ATTAAAGTTA	1.01 ± 0.013
ATTAAATGGC	1.02 ± 0.012
ATTAAATTTC	0.987 ± 0.014

Sequence	switch fluorescence ratio
ATTAAGAGGT	1.034 ± 0.0075
ATTAAGATGT	1.002 ± 0.0049
ATTAAGCTGT	1.009 ± 0.01
ATTAAGTCGC	1.01 ± 0.022
ATTAATAGCA	0.9745 ± 0.0089
ATTAATCGCT	0.9931 ± 0.0042
ATTAATCGGC	0.9735 ± 0.0033
ATTAATCTT	1.011 ± 0.0016
ATTAATTAAT	1 ± 0.034
ATTAATTGGG	1.01 ± 0.036
ATTACAATAG	1.095 ± 0.0077
ATTACGCCA	1.17 ± 0.11
ATTACGGCAT	1.18 ± 0.047
ATTACGGTCA	1.02 ± 0.038
ATTAGAAGAC	1 ± 0.027
ATTAGAATTA	0.982 ± 0.062
ATTAGATGTT	0.9635 ± 0.0029
ATTAGCAATG	1.354 ± 0.006
ATTAGCGTCA	0.991 ± 0.018
ATTAGCTCGC	0.97 ± 0.023
ATTAGCTTCC	3 ± 0.33
ATTAGGAGTC	0.999 ± 0.012
ATTAGGGAAT	0.976 ± 0.04
ATTAGGGTTA	0.9928 ± 0.0088
ATTAGGGTTC	1.44 ± 0.47

Sequence	switch fluorescence ratio
ATTAGTAGAA	0.995 ± 0.016
ATTAGTAGGT	0.976 ± 0.012
ATTAGTAGTT	0.996 ± 0.057
ATTAGTCTAT	0.988 ± 0.036
ATTAGTCTGC	0.996 ± 0.033
ATTAGTGCCG	1.04 ± 0.14
ATTATAAGGG	1.02 ± 0.056
ATTATCAGGT	1.06 ± 0.057
ATTATGATGC	0.992 ± 0.014
ATTATGATTG	0.98 ± 0.028
ATTATGCTGC	0.977 ± 0.033
ATTATGCTTT	1 ± 0.021
ATTATGGCGA	1.04 ± 0.023
ATTATGGGTC	1 ± 0.043
ATTATGGGTT	0.995 ± 0.029
ATTATGTAGG	0.988 ± 0.015
ATTATGTCGT	1 ± 0.013
ATTATGTGTC	0.959 ± 0.048
ATTATTAGTC	1.01 ± 0.022
ATTATTGCGT	1.03 ± 0.04
ATTATTTCCC	1.05 ± 0.082
ATTATTTGAC	1.08 ± 0.067
ATTATTTGGT	1.01 ± 0.014
ATTATTTTTT	1.02 ± 0.046
ATTCAAGTCA	1.03 ± 0.025
